Measurements as given in the supplement of paper PMC11136658.

Test system: peptide library, one residue held at a place counted from the Y acceptor
Assay: relative phosphorylation of the sub-library (ratio to the mean residue at this position); higher = residue favoured
Outline: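 Purified recombinant kinases were incubated for 90 min in 384-well plates with biotinylated Tyr-centred peptide library mixtures, each fixing one residue at one position from −5 to +5, plus 50 μM ATP with γ-32P-ATP. Peptides were captured on streptavidin membranes, rinsed and quantified by phosphorimaging and ImageQuant. Intensities were normalized per position by the sum of the 18 (or 16, Ser/Thr-free library) randomized residues and multiplied by that number. Values give phosphorylation relative to the mean randomized residue.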

DDR1, construct: aa444-end, human, sequence (Q08345 444-913, looked up): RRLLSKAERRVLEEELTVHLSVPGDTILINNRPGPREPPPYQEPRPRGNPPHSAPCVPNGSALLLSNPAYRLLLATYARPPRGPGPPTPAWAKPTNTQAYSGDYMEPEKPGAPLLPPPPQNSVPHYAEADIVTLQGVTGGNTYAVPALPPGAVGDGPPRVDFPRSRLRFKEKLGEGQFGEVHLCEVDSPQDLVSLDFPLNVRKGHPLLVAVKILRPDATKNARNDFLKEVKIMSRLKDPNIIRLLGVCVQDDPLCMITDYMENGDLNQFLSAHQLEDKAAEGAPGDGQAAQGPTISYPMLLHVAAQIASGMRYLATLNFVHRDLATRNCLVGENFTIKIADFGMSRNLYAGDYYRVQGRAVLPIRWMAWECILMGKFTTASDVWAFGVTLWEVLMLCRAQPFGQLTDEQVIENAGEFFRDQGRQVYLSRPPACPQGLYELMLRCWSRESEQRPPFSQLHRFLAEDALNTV

DDR1, construct: aa444-end, human (from UniProt Q08345)
relative phosphorylation
Conditions | at +1 | at +2 | at +3 | at +4 | at +5 | at -1 | at -2 | at -3 | at -4 | at -5
A fixed | 1.61 | 0.998 | 0.762 | 0.858 | 0.675 | 1.07 | 1.08 | 1.02 | 1.18 | 1.16
D fixed | 0.629 | 0.815 | 0.717 | 0.883 | 0.561 | 1.35 | 0.723 | 0.719 | 0.772 | 0.767
E fixed | 0.665 | 1.36 | 0.716 | 0.964 | 0.549 | 0.785 | 0.748 | 0.717 | 0.798 | 0.759
F fixed | 1.62 | 1.04 | 1.38 | 2.72 | 3.66 | 1.13 | 0.804 | 1.18 | 1.16 | 1.38
G fixed | 0.639 | 0.629 | 0.633 | 0.621 | 0.701 | 0.7 | 1.07 | 0.946 | 1.05 | 1.06
H fixed | 1.07 | 0.986 | 1.16 | 1.19 | 1.03 | 1.14 | 1.24 | 1.45 | 1.13 | 1.13
I fixed | 0.955 | 1.1 | 1.63 | 1.01 | 1.49 | 0.938 | 0.721 | 0.828 | 0.716 | 0.728
K fixed | 0.817 | 0.809 | 0.736 | 0.743 | 0.623 | 0.81 | 1.44 | 1.35 | 1.4 | 1.34
L fixed | 0.781 | 1.42 | 1.56 | 0.985 | 1.21 | 0.958 | 0.794 | 0.773 | 0.81 | 0.736
M fixed | 0.972 | 1.26 | 1.58 | 0.982 | 1.08 | 0.825 | 0.79 | 0.82 | 0.949 | 0.816
N fixed | 0.846 | 0.891 | 0.755 | 0.75 | 0.586 | 2.03 | 1.24 | 1.05 | 0.924 | 1.03
P fixed | 0.677 | 0.738 | 0.619 | 0.752 | 1.05 | 0.971 | 1.18 | 0.871 | 1.05 | 1.02
Q fixed | 0.916 | 0.888 | 0.74 | 0.806 | 0.598 | 0.934 | 1.05 | 0.96 | 1.09 | 1.02
R fixed | 0.963 | 0.845 | 0.784 | 0.807 | 0.732 | 0.806 | 1.63 | 1.49 | 1.48 | 1.44
S fixed | 0.974 | 0.796 | 0.602 | 0.56 | 0.617 | 0.92 | 1.11 | 0.975 | 0.835 | 0.896
T fixed | 1.14 | 0.912 | 0.744 | 0.678 | 0.667 | 0.835 | 0.904 | 0.91 | 0.829 | 0.853
V fixed | 1.72 | 1.29 | 1.46 | 1.25 | 1.02 | 0.917 | 0.73 | 0.786 | 0.798 | 0.823
W fixed | 1 | 1.22 | 1.43 | 1.44 | 1.14 | 0.886 | 0.747 | 1.15 | 1.03 | 1.04
pThr fixed | 0.793 | 1.37 | 0.799 | 1.1 | 0.686 | 0.743 | 0.653 | 0.678 | 0.726 | 0.775
pTyr fixed | 1.03 | 2 | 0.914 | 1.43 | 0.653 | 0.867 | 0.713 | 0.849 | 0.908 | 0.953
